Test results taken from article PMC7276988, “Cryo-EM Structure of the Fork Protection Complex Bound to CMG at a Replication Fork” (Molecular Cell, 2020).

B1: Mcm7 (natural protein, S. cerevisiae)
chain: MSAALPSIQLPVDYNNLFNEITDFLVTFKQDTLSSDATRNENEDENLDAENIEQHLLEKGPKYMAMLQKVANRELNSVIIDLDDILQYQNEKFLQGTQADDLVSAIQQNANHFTELFCRAIDNNMPLPTKEIDYKDDVLDVILNQRRLRNERMLSDRTNEIRSENLMDTTMDPPSSMNDALREVVEDETELFPPNLTRRYFLYFKPLSQNCARRYRKKAISSKPLSVRQIKGDFLGQLITVRGIITRVSDVKPAVEVIAYTCDQCGYEVFQEVNSRTFTPLSECTSEECSQNQTKGQLFMSTRASKFSAFQECKIQELSQQVPVGHIPRSLNIHVNGTLVRSLSPGDIVDVTGIFLPAPYTGFKALKAGLLTETYLEAQFVRQHKKKFASFSLTSDVEERVMELITSGDVYNRLAKSIAPEIYGNLDVKKALLLLLVGGVDKRVGDGMKIRGDINVCLMGDPGVAKSQLLKAICKISPRGVYTTGKGSSGVGLTAAVMKDPVTDEMILEGGALVLADNGICCIDEFDKMDESDRTAIHEVMEQQTISISKAGINTTLNARTSILAAANPLYGRYNPRLSPLDNINLPAALLSRFDILFLMLDIPSRDDDEKLAEHVTYVHMHNKQPDLDFTPVEPSKMREYIAYAKTKRPVMSEAVNDYVVQAYIRLRQDSKREMDSKFSFGQATPRTLLGIIRLSQALAKLRLADMVDIDDVEEALRLVRVSKESLYQETNKSKEDESPTTKIFTIIKKMLQETGKNTLSYENIVKTVRLRGFTMLQLSNCIQEYSYLNVWHLINEGNTLKFVDDGTMDTDQEDSLVSTPKLAPQTTASANVSAQDSDIDLQDA
notes: Mcm7, S. cerevisiae, subunit of CMG; source: S. cerevisiae, overexpressed, purified as part of CMG

Columns and labels:
Assay in all cases: cryo-EM structure; reconstituted from purified CMG, fork DNA, Csm3/Tof1, Ctf4, Mrc1 with AMP-PNP; glycerol gradient fixation (glutaraldehyde and BS3)
Tof1 = molecular target: T1, Tof1 (S. cerevisiae, UniProt P53840 1-1238, phosphorylated (sites not given)); conditions: both partners purified
T1 construct: Tof1, S. cerevisiae; residues 13-781 are resolved in the map; The Tof1 chain of m2; source: S. cerevisiae, overexpressed with Csm3, purified as Csm3/Tof1; in XL-MS part of the co-expressed, co-purified complex (yJY74)
T1 sequence: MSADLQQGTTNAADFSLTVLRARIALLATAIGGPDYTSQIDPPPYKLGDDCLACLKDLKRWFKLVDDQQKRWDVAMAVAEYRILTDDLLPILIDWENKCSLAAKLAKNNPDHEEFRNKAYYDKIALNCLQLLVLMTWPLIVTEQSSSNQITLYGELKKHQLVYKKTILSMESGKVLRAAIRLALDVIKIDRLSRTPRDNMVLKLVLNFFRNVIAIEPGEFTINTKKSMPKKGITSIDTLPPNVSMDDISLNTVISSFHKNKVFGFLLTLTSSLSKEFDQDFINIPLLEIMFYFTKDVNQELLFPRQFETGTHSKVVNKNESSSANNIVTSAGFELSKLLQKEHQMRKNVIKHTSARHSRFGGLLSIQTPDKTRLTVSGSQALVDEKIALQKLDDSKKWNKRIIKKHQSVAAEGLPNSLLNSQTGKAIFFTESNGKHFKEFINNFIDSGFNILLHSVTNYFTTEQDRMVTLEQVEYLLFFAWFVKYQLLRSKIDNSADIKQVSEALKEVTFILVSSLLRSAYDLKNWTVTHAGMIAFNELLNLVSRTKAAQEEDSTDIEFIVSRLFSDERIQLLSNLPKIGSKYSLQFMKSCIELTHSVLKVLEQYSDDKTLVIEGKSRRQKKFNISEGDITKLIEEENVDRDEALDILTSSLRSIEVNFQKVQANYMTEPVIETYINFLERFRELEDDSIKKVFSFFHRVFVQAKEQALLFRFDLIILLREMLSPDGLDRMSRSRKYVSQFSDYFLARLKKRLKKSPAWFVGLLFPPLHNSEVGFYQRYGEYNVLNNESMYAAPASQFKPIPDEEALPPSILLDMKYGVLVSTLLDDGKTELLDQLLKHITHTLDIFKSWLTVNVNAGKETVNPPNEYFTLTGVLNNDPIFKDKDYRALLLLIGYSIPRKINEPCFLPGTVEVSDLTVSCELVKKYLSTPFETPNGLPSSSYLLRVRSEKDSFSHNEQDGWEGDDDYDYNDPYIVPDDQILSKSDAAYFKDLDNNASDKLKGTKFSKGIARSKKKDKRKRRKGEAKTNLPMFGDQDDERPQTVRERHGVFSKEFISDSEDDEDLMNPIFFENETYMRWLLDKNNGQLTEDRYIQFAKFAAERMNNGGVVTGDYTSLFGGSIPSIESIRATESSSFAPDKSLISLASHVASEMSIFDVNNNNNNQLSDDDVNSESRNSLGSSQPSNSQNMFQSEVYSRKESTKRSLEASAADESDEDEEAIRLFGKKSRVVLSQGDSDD

Mcm7 = molecular target: B1; conditions: both partners purified
[1] = molecular target: the molecule itself

## B1
Tof1
  binding result: binds

B2: Csm3 (natural protein, S. cerevisiae)
chain: MDQDFDSLLLGFNDSDSVQKDPTVPNGLDGSVVDPTIADPTAITARKRRPQVKLTAEKLLSDKGLPYVLKNAHKRIRISSKKNSYDNLSNIIQFYQLWAHELFPKAKFKDFMKICQTVGKTDPVLREYRVSLFRDEMGMSFDVGTRETGQDLERQSPMVEEHVTSAEERPIVADSFAQDKRNVNNVDYDNDEDDDIYHLSYRNRRGRVLDERGNNETVLNNVVPPKEDLDALLKTFRVQGPVGLEENEKKLLLGWLDAHRKMEKGSMTEEDVQLIQSLEEWEMNDIEGQHTHYDLLPGGDEFGVDQDELDAMKEMGF
notes: Csm3, S. cerevisiae; residues 46-139 are resolved in the map; The Csm3 chain of m2; source: S. cerevisiae, overexpressed with Tof1, purified as Csm3/Tof1; in XL-MS part of the co-expressed, co-purified complex (yJY74)
Mcm7
  binding result: binds

B3: Ctf4 (natural protein, S. cerevisiae)
chain: MVSVIDKLVFDFGGKTLVSLAPDNNTLCVANKNGLTKILKTNNPEEEPETLDSSKLVSSIKCYSNSHFLMTTMQGDALRYNIDSSQEELLARFALPLRDCCVIHSGKMAVFGGDDLELILLELDDETHKKHAIKIDEQVSQISYNSQMNILAVSMINGKVQIFSLTSTIPNKVHELNDYIVANSYDDTHRDKILSNMMDDIDKDNDNDLSETADPDENNVADPEFCAANRICTRVAWHPKGLHFALPCADDTVKIFSIKGYSLQKTLSTNLSSTKAHFIDLQFDPLRGTYIAAVDLNNKLTVWNWETSEIHYTREFKRKITNIAWKIQADSKTLDLVLGTWSGSIAIVQNLAESVVSNIPDQSVAESSTKHGLFVDSESDLENLEGNDDINKSDKLFSDITQEANAEDVFTQTHDGPSGLSEKRKYNFEDEEDFIDDDDGAGYISGKKPHNEHSYSRVHKTHSFPISLANTGKFRYMPFSPAGTPFGFTDRRYLTMNEVGYVSTVKNSEQYSITVSFFDVGRFREYHFEDLFGYDLCFLNEKGTLFGQSKTGQIQYRPHDSIHSNWTKIIPLQAGERITSVAATPVRVIVGTSLGYFRSFNQFGVPFAVEKTSPIVALTAQNYRVFSVHYSQFHGLSYSLSELGTSSKRYYKRECPLPMSLPNINSDMKKDANLDYYNFNPMGIKSLFFSSYGDPCIFGSDNTLLLLSKWRSPEESKWLPILDSNMEIWKMSGGKETTDIHVWPLALAYDTLNCILVKGKHIWPEFPLPLPSEMEIRMPVFVKSKLLEENKAILNKKNEIGADTEAEEGEEDKEIQIPVSMAAEEEYLRSKVLSELLTDTLENDGEMYGNENEVLAALNGAYDKALLRLFASACSDQNVEKALSLAHELKQDRALTAAVKISERAELPSLVKKINNIREARYEQQLK
notes: Ctf4, S. cerevisiae; only the C-terminal part is resolved in the map; Homotrimer; also called Ctf4 trimer; Ctf4_(3); source: purified as previously described (Yeeles et al., 2015); also co-expressed with CMG, Csm3/Tof1 and Mrc1 in S. cerevisiae yJY74 and co-purified
[1]
  stoichiometry N: 3
